Measurements published in patent publication US8889130B2, “Treatment of osteoarthritis and pain” (Abbvie Inc., priority 2011, dated 2014).

B1: DVD2-Ig: DVD-Ig as DVD1-Ig but with linkers ADAAP (light chain) and AKTTPP (heavy chain) (antibody)
VH: MQLSGLTSEDSAMYFCVRFPTGNDYYAMDYWGQGTSVTVSSAKTTPPQIQLVQSGPELKKPGETVKISCKASGYTFRNYGMNWVKQAPGKDLKRMAWINTYTGESTYADDFKGRFAFSLETSASTAYLQINNLKNEDTATYFCARGIYYYGSSYAMDYWGQGTSVTVSS
VL: PVEADDAATYYCQQNNEDPFTFGSGTKLEIKRADAAPNIQMTQTTSSLSASLGDRVTISCRASQDISNCLNWYQQKPDGTVKLLIYYTSRLHSGVPSRFSGSGSGTDYSLTISNLEQEDIATYFCQQGKTLPYAFGGGTKLEINR
B2: 10G11: mouse anti-mouse IL-1β monoclonal antibody (clone 10G11) from IL-1α/β double KO mice (antibody, V domains shown)
VH: EVQLQQSGPELVKPGTSVKMSCKTSGYTFTSYVMHWVKQKPGQGLEWIGYIIPYNDNTKYNEKFKGKATLTSDKSSSTAYMELSSLTSEDSAVYYCARRNEYYGSSFFDYWGQGTTLTVSS
VL: DIQMTQSPASLSASVGETVTITCRGSGILHNYLVWYQQKQGKSPQLLVYSAKILADGVPSRFSGSGSGTQYSLKINSLQPEDFGSYYCQHFWSTPFTFGSGTKLEIKR
modifications: heavy chain variable domain of 10G11; light chain variable domain of 10G11
notes: mouse anti-mouse IL-1β monoclonal antibody (clone 10G11) from IL-1α/β double KO mice

What was measured:
[1] = test system: IL-1α, IL-1β, or both IL-1α and IL-1β; experiment: Functional homogeneity: antigen binding in solution by SEC; details: 120-minute incubation at 37° C. with antigen in equal molar ratio
Procedure: Because DVD2-Ig binding protein was purified by Protein A chromatography instead of target-specific affinity chromatography, any potential misfolded and/or mismatched VL/VH domains, if present, can be assessed by binding studies against the two different antigens. Such binding analysis was conduced by size exclusion liquid chromatography (SEC). DVD2-Ig binding protein, alone or after a 120-minute incubation period at 37° C. with IL-1α, IL-1β, or both IL-1α and IL-1β, in equal molar ratio, were applied to the column. Each of the antigens was also run alone as controls. […] In the presence of both IL-1α and IL-1β, there was a further and complete shift of the DVD2-Ig binding protein signal, indicating all DVD2-Ig molecules were able to bind both antigens in a uniform fashion.

male Swiss Webster mice = experiment: Joint instability model (JIM) of osteoarthritis, cartilage degeneration histology; format: in vivo, mouse; details: Example 3.3.3 (FIG. 4); 21 day study; anti-IL-1β mAb 3, 6, 12 mg/kg; combination 6 mg/kg each
Procedure: The design of study of the in vivo activity of a mIL-1α/β DVD-Ig molecule in the joint instability model (JIM) of osteoarthritis in mice is shown in Table 19. All groups contained 25 mice (n=25), weighing approximately 30 grams (BW=30 g). The study was terminated after 21 days. Two and a half month old, male Swiss Webster mice (25/group/time point), housed 5/cage, were anesthetized with isoflurane anesthesia. Anterior cruciate ligament (ACL) trauma was administered on the right and left knees on day 0 in an attempt to induce OA lesions. Intraperitoneal (ip) treatments with IL-1 inhibitory antibodies IL-1α (9H10) and IL-1β (10G11), alone and in combination, were initiated the day of ACL trauma and continued every 4th day (q4d) for 20 days. The vehicle for the non-treatment control was PBS. Right and left knees were harvested on day 21, and histopathologic alterations were scored and characterized. Data were analyzed using only joints that had proliferative responses indicative of successful instability induction. The proliferative response/instability was scored 0-3, and only unstable joints (scores of 1, 2, or 3) were used in the final analysis. Medial and lateral femoral and tibial cartilage degeneration was scored for severity of cartilage degeneration on a scale 0-5. Four days after the last antibody dose, blood was drawn from all animals from each group for serum harvest. Body weights were recorded weekly. […]
Following 2-3 days in a decalcifying fixative (Surgipath Decalifier, Surgipath Medical Ind., Inc., Richmond Va.), both knee joints were trimmed of extraneous tissue, embedded in the frontal plane and sectioned. […] Slides were examined by a board-certified veterinary pathologist blinded to study group designation, and were scored according to the method below. […]
Medial and lateral femoral and tibial cartilage degeneration were scored for severity of cartilage degeneration using the following system: Depth/extent of chondrocyte and proteoglycan loss with fibrillation: […]
The design of this study was similar to that described above in Example 3.3.1. […] Body weights were recorded weekly. […]

DMM mice = experiment: DMM model of osteoarthritis, mechanical allodynia (paw withdrawal threshold); format: in vivo, mouse; details: Example 5 (FIG. 12); 6 mg/kg ip twice per week for four weeks; day 28
Procedure: The DMM model also generates measurable pain in the mice. […] The efficacy of anti-IL-1α/β therapy was studied in the DMM animal model.
The potential of anti-IL-1 therapy to ameliorate pain was tested in the DMM mouse model of OA in terms of mechanical allodynia. Dosing of the combination of IL-1α and IL-1β mAbs was initiated on the day of the surgery and was repeated twice a week for 5 weeks. Animals were treated with PBS vehicle alone, with an IgG isotype control, or with a combination of anti-IL-1α and anti-IL-1β mAbs (at a dose of 6 mg/kg for each mAb). Animals were tested weekly for paw withdrawal threshold. […] This reduction in pain was seen as early as week 1 following treatment (data not shown).
To evaluate the effect of IL-1 therapy in established pain, animals in the IgG control group with established OA and mechanical allodynia were treated on day 35 with the combination of anti-IL-1α and anti-IL-1β monoclonal antibodies and the paw withdrawal threshold was tested 24 hours later (day 36).
The potential of anti-IL-1 therapy to ameliorate pain in the DMM mouse model of OA (see, above) in terms of mechanical allodynia was further evaluated. Dosing of the combination of IL-1α and IL-1β mAbs was initiated on the day of the surgery and was repeated twice a week for 4 weeks. […]

Molecule	shift of the DVD2-Ig binding protein SEC signal in complex with antigen [1] [%]	preventing cartilage degradation (medial tibial cartilage degeneration scores) (male Swiss Webster mice)	paw withdrawal threshold (allodynia) (DMM mice)
B1	100	–	–
B2	–	not effective in preventing cartilage degradation at any dose tested	allodynic (painful)
